Test results as given in patent US20050026839A1 (GENERAL HOSPITAL, published 2005).
Where two headings read alike, the source gives them in different places. Square brackets hold non-standard residues; d marks the D form. Ends that are not written are not given here. hArg = N=C(N)NCCCC[C@H](N)C(=O)O; Nle = CCCC[C@H](N)C(=O)O; Aib = CC(C)(N)C(=O)O

T1: truncated human P1R deleted for residues (24-181) (hP1R-delNt) (human, UniProt Q03431 182-593)
T1 sequence (looked up): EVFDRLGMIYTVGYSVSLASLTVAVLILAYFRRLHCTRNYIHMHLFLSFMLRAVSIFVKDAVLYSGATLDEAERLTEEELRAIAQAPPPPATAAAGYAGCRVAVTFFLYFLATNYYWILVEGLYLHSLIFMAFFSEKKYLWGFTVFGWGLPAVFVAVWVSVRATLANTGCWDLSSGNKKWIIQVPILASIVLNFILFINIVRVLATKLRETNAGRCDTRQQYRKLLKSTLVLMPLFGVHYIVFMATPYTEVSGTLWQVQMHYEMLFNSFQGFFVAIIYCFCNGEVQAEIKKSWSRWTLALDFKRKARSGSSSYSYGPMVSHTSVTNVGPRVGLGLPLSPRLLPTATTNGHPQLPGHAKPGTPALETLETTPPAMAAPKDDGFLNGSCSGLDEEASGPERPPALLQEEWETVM

T2: wild-type human PTH/PTHrP receptor (hP1R-WT) (human, UniProt Q03431 27-593)
T2 sequence (looked up): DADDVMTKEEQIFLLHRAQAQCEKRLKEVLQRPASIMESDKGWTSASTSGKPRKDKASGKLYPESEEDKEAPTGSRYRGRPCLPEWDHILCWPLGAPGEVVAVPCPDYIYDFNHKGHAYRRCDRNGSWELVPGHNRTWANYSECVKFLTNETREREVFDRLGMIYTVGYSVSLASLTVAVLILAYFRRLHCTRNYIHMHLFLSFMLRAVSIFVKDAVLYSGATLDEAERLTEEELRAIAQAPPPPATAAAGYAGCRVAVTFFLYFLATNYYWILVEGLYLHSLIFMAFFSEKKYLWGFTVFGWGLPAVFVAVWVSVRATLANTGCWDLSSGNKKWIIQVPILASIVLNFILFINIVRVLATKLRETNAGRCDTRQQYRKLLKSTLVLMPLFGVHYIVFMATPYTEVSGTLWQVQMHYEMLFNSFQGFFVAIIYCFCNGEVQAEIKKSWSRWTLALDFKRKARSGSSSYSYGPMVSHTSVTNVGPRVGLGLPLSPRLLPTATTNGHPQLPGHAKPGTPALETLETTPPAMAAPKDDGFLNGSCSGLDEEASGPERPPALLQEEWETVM

B1: [Aib^1,3,M]PTH(1-14) (peptide)
peptide: [Aib]V[Aib]EIQLMHQ[hArg]AKW-NH2
modifications: N-terminus assumed
SMILES: CC[C@H](C)[C@H](NC(=O)[C@H](CCC(=O)O)NC(=O)C(C)(C)NC(=O)[C@@H](NC(=O)C(C)(C)N)C(C)C)C(=O)N[C@@H](CCC(N)=O)C(=O)N[C@@H](CC(C)C)C(=O)N[C@@H](CCSC)C(=O)N[C@@H](Cc1c[nH]cn1)C(=O)N[C@@H](CCC(N)=O)C(=O)N[C@@H](CCCCNC(=N)N)C(=O)N[C@@H](C)C(=O)N[C@@H](CCCCN)C(=O)N[C@@H](Cc1c[nH]c2ccccc12)C(N)=O
notes: also called 671 [Aib^1,3, M]PTH (1-14); 671 [Aib^1,3M]PTH(1-14)
B2: [Aib^1,3,M]PTH(1-21) (peptide)
peptide: [Aib]V[Aib]EIQL[Nle]HQ[hArg]AKWLASVRRY-NH2
modifications: N-terminus assumed
SMILES: CCCC[C@H](NC(=O)[C@H](CC(C)C)NC(=O)[C@H](CCC(N)=O)NC(=O)[C@@H](NC(=O)[C@H](CCC(=O)O)NC(=O)C(C)(C)NC(=O)[C@@H](NC(=O)C(C)(C)N)C(C)C)[C@@H](C)CC)C(=O)N[C@@H](Cc1c[nH]cn1)C(=O)N[C@@H](CCC(N)=O)C(=O)N[C@@H](CCCCNC(=N)N)C(=O)N[C@@H](C)C(=O)N[C@@H](CCCCN)C(=O)N[C@@H](Cc1c[nH]c2ccccc12)C(=O)N[C@@H](CC(C)C)C(=O)N[C@@H](C)C(=O)N[C@@H](CO)C(=O)N[C@H](C(=O)N[C@@H](CCCNC(=N)N)C(=O)N[C@@H](CCCNC(=N)N)C(=O)N[C@@H](Cc1ccc(O)cc1)C(N)=O)C(C)C
notes: unlabeled peptide; also called 674 [Aib^1,3, M]PTH (1-21); 674 [Aib^1,3M]PTH(1-21)

Legend:
[1] = target: T1, truncated human P1R deleted for …; assay: cell-based or functional assay
[2] = target: T2, wild-type human PTH/PTHrP receptor …; assay: cell-based or functional assay
[3] = target: T2, wild-type human PTH/PTHrP receptor …; assay: competition binding, 125I-[M]PTH(1-21) tracer, HKRK-B28 cells, 4 h at 4 C
How it was run: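 Cells are incubated with about 26 fmol ¹²⁵I-[M]PTH(1-21) tracer and unlabeled competitor in 300 μL for 4 h at 4 °C, then washed, lysed and counted. Nonspecific binding is defined with 1 μM of the same unlabeled peptide. IC50 values come from nonlinear regression, and the peptides are rat-PTH-based and C-terminally amidated.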

[4] = target: T2, wild-type human PTH/PTHrP receptor …; assay: competition binding, 125I-[Aib1,3,M]PTH(1-21) tracer, COS-7 cells expressing hP1R-WT
Experimental: Competition Binding. Binding reactions were performed with HKRK-B28 cells or in COS-7 cells in 24-well plates. The cells were rinsed with 0.5 mL of binding buffer, and then treated successively with 100 μL binding buffer, 100 μL of binding buffer containing various amounts of unlabeled competitor ligand, and 100 μL of binding buffer containing ca. 100,000 cpm of ¹²⁵I-[M]PTH(1-21) or ¹²⁵I-[Aib^{1,3},M]PTH(1-21)} (ca. 26 fmol; final volume=300 μL). Incubations were 4 to 6 h at 4° C., at which time near equilibrium conditions were attained. Cells were then placed on ice, the binding medium was removed, and the monolayer was rinsed three times with 0.5 mL of cold binding buffer. The cells were subsequently lysed with 0.5 mL […] NaOH and counted for radioactivity. For each tracer and in each experiment, the non-specific binding was determined as the radioactivity that bound in the presence of the same unlabeled peptide at a concentration of 1 μM, and was ˜1% of total radioactivity added for each tracer. The maximum specific binding (B₀) was the total radioactivity bound in the absence of competing ligand, corrected for nonspecific binding, and for each tracer, ranged from 8% to 20% of the total radioactivity added. Nonlinear regression was used to calculate binding IC₅₀ values (see below). Scatchard transformations of homologous competition binding data derived from studies with 26 fmol of ¹²⁵I-[Aib^{1,3},M]PTH(1-21) were employed for estimations of apparent equilibrium dissociation constant (kDapps) and total number of ligand binding sites (Bₘₐₓ), assuming a single class of binding sites and equal affinities of the iodinated and non iodinated ligand.

[5] = target: T2, wild-type human PTH/PTHrP receptor …; assay: cell-based or functional assay; remark: listed apart in the source

Binder | PLC EC50 [1] [nM] | PLC EMAX(obs.) [1] [foldxbasal] | cAMP EC50 [1] [nM] | cAMP EMax(obs.) [1] [pmole/well] | PLC EC50 [2] [nM] | PLC EMAX(obs.) [2] [foldxbasal] | cAMP EC50 [2] [nM] | cAMP EMax(obs.) [2] [pmole/well] | IC50 [3] [nM] | IC50 [4] [nM] | cAMP EC50 [5] [nM] | cAMP EMax(obs.) [5] [pmole/well]
B1 | 130 | 3.1 | 0.73 | 250 | 71 | 4.3 | 1.2 | 240 | 130 | 2250 | 1.1 | 278
B2 | – | – | 0.38 | 240 | – | – | 0.8 | 300 | 31 | 28 | 4.3 | 284
